Experimental data from the supplement of paper PMC9732359.
± gives the uncertainty stated by the source.

Experiment: protein stability index of a GFP-peptide fusion (yeast GPS) (PSI 1-4); higher = more stable; sorted into four equal gates, so the index is relative within each strain
In short: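 Plasmids in a pooled yeast library fused tiled 17-residue yeast protein peptides downstream of GFP and also expressed Cherry. Mid-log cultures grown without leucine were sorted into four equal gates by GFP/Cherry fluorescence ratio. Each gate's plasmids were PCR-amplified and Illumina-sequenced, and reads were matched to strains by barcodes. The protein stability index is derived by multiplying each gate's read frequency by its gate number and summing the results.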

| Sequence | protein stability index (doa10∆) | protein stability index (pdr5∆) | protein stability index (san1∆) | protein stability index (ubr1∆) |
| --- | --- | --- | --- | --- |
| GKRQVLIRPSSKVIIKF [RPS22A] | 3.04 ± 0.068 | 2.4 ± 0.046 | 2.78 ± 0.057 | 2.95 ± 0.042 |
| GKTIVVKDLGQGLKLAK [SMC3] | 2.9 ± 0.15 | 2.92 ± 0.15 | 2.45 ± 0.16 | 2.81 ± 0.067 |
| GLFGANSNSNSGSLFGS [YGL172W/NUP49] | 1.31 ± 0.13 | 1.7 ± 0.14 | 1.05 ± 0.25 | 1.41 ± 0.21 |
| GLGMISASHILIPASDL [PRP8] | 2.06 ± 0.05 | 2.41 ± 0.043 | 1.75 ± 0.06 | 2.19 ± 0.036 |
| GLGVLTHRNKDGTGVRV [FAS1] | 3.12 ± 0.066 | 2.47 ± 0.094 | 3.58 ± 0.082 | 3.27 ± 0.085 |
| GLHKFVKGDLLQEAIDF [PRE10] | 2.93 ± 0.1 | 2.83 ± 0.079 | 3.09 ± 0.082 | 2.99 ± 0.053 |
| GLIAARRTGLLRGSQKT [RPL2A] | 3.04 ± 0.12 | 3.08 ± 0.11 | 2.88 ± 0.11 | 2.78 ± 0.11 |
| GLKYALATGNWGEQKKA [RPB2] | 2.58 ± 0.097 | 2.85 ± 0.075 | 3.01 ± 0.082 | 2.8 ± 0.063 |
| GLRVRGQHTKTTGRRRA [RPS18A] | 2.09 ± 0.052 | 2.33 ± 0.066 | 2.21 ± 0.068 | 2.54 ± 0.037 |
| GLSLAGLAPDARVLSNY [PRE5] | 1.23 ± 0.098 | 1.58 ± 0.1 | 1.27 ± 0.24 | 1.13 ± 0.1 |
| GLSQTEAFGNIKIDAKP [MCD1] | 2.07 ± 0.083 | 2.87 ± 0.15 | 1.77 ± 0.2 | 2.48 ± 0.078 |
| GLTLSTTNLDIDLLTFQ [RPP1] | 2.94 ± 0.067 | 3.04 ± 0.06 | 3.16 ± 0.056 | 2.86 ± 0.05 |
| GLVNHRVGVKLKFNSTE [SMX3] | 2.48 ± 0.052 | 2.24 ± 0.04 | 1.94 ± 0.056 | 1.48 ± 0.036 |
| GNGEGLGGDSDEANIEI [BRN1] | 3.11 ± 0.17 | 3.48 ± 0.27 | 2.95 ± 0.17 |  |
| GNILDFNLNLPPSSFGR [REC8] | 3.04 ± 0.075 | 3.24 ± 0.15 | 3.03 ± 0.055 | 2.94 ± 0.1 |
| GNIVAELAQDPQTMEHY [YCS4] | 2.9 ± 0.1 | 3.4 ± 0.17 | 3.44 ± 0.16 | 2.07 ± 0.11 |
| GNLIGVDPFDSDEEESV [SNU114] | 3.03 ± 0.075 | 3.14 ± 0.059 | 3 ± 0.057 | 3.2 ± 0.054 |
| GNVVMDIGKGAETTFLQ [RPC53] | 3.26 ± 0.2 |  | 3.02 ± 0.22 | 3.29 ± 0.083 |
| GPAAAIEFEYDPWNKLK [RPB3] | 3.04 ± 0.081 | 3.08 ± 0.078 | 3.05 ± 0.052 | 3.25 ± 0.065 |
| GPSVESYELRNTTTYKS [SNF5] | 2.75 ± 0.1 | 2.9 ± 0.099 | 2.41 ± 0.094 | 1.99 ± 0.082 |
| GQCRPISKTVRFNVVKV [RPS11A] | 3.31 ± 0.12 | 2.93 ± 0.22 | 2.76 ± 0.097 | 2.77 ± 0.1 |
| GQGYRKVGIWPYFDYIF [YJL039C/NUP192] | 3.37 ± 0.14 | 3.21 ± 0.12 | 3.03 ± 0.12 | 2.62 ± 0.17 |
| GQPVNDFIDTATRHVLM [RPS3] | 2.96 ± 0.081 | 3.02 ± 0.06 | 3.1 ± 0.051 | 2.96 ± 0.07 |
| GQSAGKLAAIVEIIDQK [RPL14A] | 3.28 ± 0.098 | 3.29 ± 0.11 | 2.82 ± 0.11 | 3.41 ± 0.066 |
| GRDTTDYLKNIIVENSG [RPN2] | 3.21 ± 0.13 | 2.83 ± 0.17 | 3.34 ± 0.12 | 3.4 ± 0.23 |

| Sequence | protein stability index (doa10∆) | protein stability index (pdr5∆) | protein stability index (san1∆) | protein stability index (ubr1∆) |
| --- | --- | --- | --- | --- |
| GRHHQEEELFQEMIEIS [SRP54] | 3.21 ± 0.058 | 3.3 ± 0.047 | 3.41 ± 0.038 | 3.35 ± 0.058 |
| GRILQNLLHSYMEKGTQ [YML103C/NUP188] | 2.66 ± 0.14 | 2.51 ± 0.096 | 1.96 ± 0.086 | 2.51 ± 0.12 |
| GRLDRKIEFPLPSEDSR [RPT5] | 3.36 ± 0.15 | 2.91 ± 0.21 | 2.71 ± 0.24 | 3.56 ± 0.12 |
| GRNGSNGNDESSEYETI [NUT1] | 3.13 ± 0.13 | 3.34 ± 0.11 | 3.09 ± 0.086 | 3 ± 0.12 |
| GRPQRKMMSFQANPTEE [RPB5] |  | 3.2 ± 0.17 | 3.44 ± 0.094 | 3.53 ± 0.19 |
| GRQFCNRLSRIHLYMLT [YLR018C/POM34] | 1.68 ± 0.051 | 1.87 ± 0.05 | 1.69 ± 0.1 | 1.8 ± 0.04 |
| GRRWNELRRFESSINTH [SKI6] |  | 2.66 ± 0.12 | 2.01 ± 0.13 | 2.41 ± 0.13 |
| GRSWDGKEHIVAALVSL [ECM29] | 1.88 ± 0.052 | 2.1 ± 0.063 | 1.56 ± 0.082 | 1.65 ± 0.042 |
| GRVTFIPLNRLSLDSDV [SMC3] | 2.65 ± 0.09 | 2.9 ± 0.053 | 2.85 ± 0.063 | 3.09 ± 0.058 |
| GRYMEALALYVDAYRRL [SRP68] | 1.84 ± 0.074 | 1.91 ± 0.11 | 1.85 ± 0.15 | 1.79 ± 0.077 |
| GSELVQKYVGEGARMVR [RPT1] | 2.57 ± 0.22 | 2.84 ± 0.085 | 3 ± 0.085 | 2.81 ± 0.05 |
| GSESDDSEGSIKQTSDE [ECM29] | 3.32 ± 0.1 | 3.57 ± 0.083 | 3.32 ± 0.068 | 3.42 ± 0.062 |
| GSGLLKLSEIILNINNS [SWI1] | 2.69 ± 0.089 | 2.69 ± 0.081 | 2.4 ± 0.098 | 2.85 ± 0.081 |
| GSIGSRKYSFNYSSLPS [YAR002W/NUP60] | 1.95 ± 0.059 | 2.39 ± 0.062 | 2.12 ± 0.081 | 1.65 ± 0.039 |
| GSLKLPNCPRPNMSICI [RPL1A] | 2.62 ± 0.082 | 2.67 ± 0.05 | 2.95 ± 0.065 | 2.98 ± 0.05 |
| GSMTKTWYVGNSRGKFD [SSN2] | 3.74 ± 0.26 |  | 3.08 ± 0.24 |  |
| GSNGELFGGRHYLFNTF [SWP82] |  | 2.97 ± 0.29 |  |  |
| GSRMVRELFVMAREHAP [RPT6] | 1.82 ± 0.074 | 1.68 ± 0.073 | 1.09 ± 0.27 | 1.54 ± 0.079 |
| GSRVLIFSQMSRLLDIL [ISW2] | 3.27 ± 0.15 | 3.46 ± 0.11 | 3.18 ± 0.11 | 3.58 ± 0.08 |
| GTISKLENKENGLLNEI [SMC2] | 3.45 ± 0.29 | 3.28 ± 0.087 | 3.36 ± 0.1 | 3.35 ± 0.17 |
| GTLEYGTCFGGSKLEDM [RET1] | 3.17 ± 0.072 | 3.16 ± 0.072 | 3.36 ± 0.061 | 3.29 ± 0.065 |
| GTNAMLPSPESLKTKLN [SNF5] | 1.88 ± 0.037 | 1.97 ± 0.035 | 2.19 ± 0.046 | 2.12 ± 0.034 |
| GTNNARLAQLLRQLASY [RPN1] | 3.17 ± 0.092 | 3.09 ± 0.083 | 3.21 ± 0.097 | 3.14 ± 0.096 |
| GTPEATKGMITNLQRNV [NUT2] | 2.95 ± 0.15 | 2.85 ± 0.12 | 2.94 ± 0.15 | 3.09 ± 0.19 |
| GTPLFTFGKKADVTSNI [YOR098C/NUP1] | 1.82 ± 0.05 | 1.92 ± 0.046 | 1.51 ± 0.11 | 2.18 ± 0.036 |
